From publication PMC3733160
Where two headings read alike, the source gives them in different places. Values belong to the substance of their own block, whether it stands above or below them.

Legend:
[1] = molecular target: 2-Cysteine peroxiredoxin A (At2-CysPrx) wild type, non-tagged (Arabidopsis thaliana); assay: SEC
[2] = molecular target: 2-Cysteine peroxiredoxin A (At2-CysPrx) wild type, non-tagged (Arabidopsis thaliana); assay: ITC
[3] = molecular target: 2-Cysteine peroxiredoxin A (At2-CysPrx) wild type, non-tagged (Arabidopsis thaliana); assay: SEC; remark: listed apart in the source
[4] = molecular target: 2-CysPrx C-terminally truncated variant ΔC (–20 aa), non-tagged (Arabidopsis thaliana); assay: SEC
[5] = molecular target: 2-CysPrx C176S variant, non-tagged (Arabidopsis thaliana); assay: ITC
[6] = molecular target: 2-CysPrx C176S variant, non-tagged (Arabidopsis thaliana); assay: SEC
[7] = molecular target: 2-CysPrx C54S variant, non-tagged (Arabidopsis thaliana); assay: SEC
[8] = molecular target: 2-CysPrx F84R variant, non-tagged (Arabidopsis thaliana); assay: SEC
[9] = molecular target: 2-CysPrx F84R variant, non-tagged (Arabidopsis thaliana); assay: SEC; remark: listed apart in the source

Substance: 2-Cysteine peroxiredoxin A (At2-CysPrx) wild type, non-tagged (enzyme)
stoichiometry N [1]: 10 | CTC (critical transition concentration, oligomer to dimers) [2]: 3.73 µM | dH (dissociation enthalpy ΔHm) [2]: 72 kcal/mol | stoichiometry N [3]: 2

Substance: 2-CysPrx C-terminally truncated variant ΔC (–20 aa), non-tagged (enzyme)
stoichiometry N [4]: 2

Substance: 2-CysPrx F84R variant, non-tagged (enzyme)
stoichiometry N [8]: 2 | stoichiometry N [9]: 2

Now from value to substance:

CTC (critical transition concentration, oligomer to dimers) [5]: 0.63 µM | dH (dissociation enthalpy ΔHm) [5]: 1610 kcal/mol | stoichiometry N [6]: 10
Substance: 2-CysPrx C176S variant, non-tagged (enzyme)

stoichiometry N [7]: 10
Substance: 2-CysPrx C54S variant, non-tagged (enzyme)
